Results taken from patent publication US20220275097A1.
Residue numbers refer to the chain shown, from its start. Values belong to the binder of their own block, whether it stands above or below them.

Biological target: leptin receptor on reporter cells (SIE-luciferase reporter cells; Ba/F3-lepR reporter cells), P48357
Assay: cell-based or functional assay

Chain of leptin receptor on reporter cells (SIE-luciferase reporter cells; Ba/F3-lepR reporter cells), P48357 (P48357 22-1165): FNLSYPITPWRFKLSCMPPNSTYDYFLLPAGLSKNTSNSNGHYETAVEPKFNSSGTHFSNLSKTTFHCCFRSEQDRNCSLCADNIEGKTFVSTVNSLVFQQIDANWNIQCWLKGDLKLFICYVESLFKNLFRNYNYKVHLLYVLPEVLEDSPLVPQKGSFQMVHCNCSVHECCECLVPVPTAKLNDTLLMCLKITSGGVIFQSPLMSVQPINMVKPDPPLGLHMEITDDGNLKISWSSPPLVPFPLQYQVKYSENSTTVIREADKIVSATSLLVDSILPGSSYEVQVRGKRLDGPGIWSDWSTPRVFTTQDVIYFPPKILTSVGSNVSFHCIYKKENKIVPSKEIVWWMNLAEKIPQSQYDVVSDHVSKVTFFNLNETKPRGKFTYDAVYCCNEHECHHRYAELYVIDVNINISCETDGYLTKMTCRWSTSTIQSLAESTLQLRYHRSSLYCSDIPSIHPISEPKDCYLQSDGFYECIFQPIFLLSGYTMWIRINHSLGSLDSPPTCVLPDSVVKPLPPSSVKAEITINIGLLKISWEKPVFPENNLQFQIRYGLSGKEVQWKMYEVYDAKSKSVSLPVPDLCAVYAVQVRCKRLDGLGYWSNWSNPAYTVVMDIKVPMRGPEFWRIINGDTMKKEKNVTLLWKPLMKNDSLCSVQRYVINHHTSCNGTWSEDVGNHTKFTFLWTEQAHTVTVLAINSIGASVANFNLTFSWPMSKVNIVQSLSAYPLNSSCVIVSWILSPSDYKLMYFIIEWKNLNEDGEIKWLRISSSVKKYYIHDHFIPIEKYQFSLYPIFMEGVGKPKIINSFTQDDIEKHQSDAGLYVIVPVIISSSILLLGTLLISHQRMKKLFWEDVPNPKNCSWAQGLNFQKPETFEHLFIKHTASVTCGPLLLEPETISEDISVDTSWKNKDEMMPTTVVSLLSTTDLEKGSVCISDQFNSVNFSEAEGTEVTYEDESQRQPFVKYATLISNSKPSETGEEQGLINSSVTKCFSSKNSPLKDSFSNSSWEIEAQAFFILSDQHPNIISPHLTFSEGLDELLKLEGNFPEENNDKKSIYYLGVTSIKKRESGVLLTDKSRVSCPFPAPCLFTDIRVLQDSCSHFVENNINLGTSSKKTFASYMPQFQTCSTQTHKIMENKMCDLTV

B2: S2H3 (antibody, V domains shown)
VH: QVQLLQSGGGVVQPGRSLRLSCAASGFTFSSYGMHWVRQAPGKGLEWVAVISYDGSNKYYADSVKGRFTISRDNSKNTLYLQMNSLRAEDTAVYYCAGVRENYFTYWGQGTLVTVSS
VL: EIVLTQSPGTLSLSPGERATLSCRASQSVSSNYLAWYQQKPGQAPRLLIYGASSRPTGIPDRFSGSGSGTDFTLTISRLEPEDFAVYYCQQYAASPLTFGGGTKLEIK
EC50(M), Cell proliferation assay (Ba/F3-lepR): 1.93e-10 M
EC50(M), Luciferase assay: 3.28e-10 M
EC50, SIE-luciferase reporter assay: 0.328 nM

B3: S2H2 (antibody, V domains shown)
VH: B2 VH with G98T, V99F, T105E
VL: B2 VL
EC50(M), Cell proliferation assay (Ba/F3-lepR): 6.87e-10 M
EC50(M), Luciferase assay: 6.52e-10 M
EC50, SIE-luciferase reporter assay: 0.652 nM

Further lines, results first:

EC50(M), Cell proliferation assay (Ba/F3-lepR): 1.15e-09 M
EC50(M), Luciferase assay: 4.94e-10 M
EC50, SIE-luciferase reporter assay: 0.494 nM
B1: S2H7 (antibody, V domains shown)
VH: B2 VH with G98T, V99R, R100Y, T105S, Y106T
VL: B2 VL

EC50(M), Cell proliferation assay (Ba/F3-lepR): 4.19e-10 M
EC50(M), Luciferase assay: 4.53e-10 M
EC50, SIE-luciferase reporter assay: 0.453 nM
B4: S2H1 (antibody, V domains shown)
VH: B2 VH with G98S, V99L, R100Y, T105S, Y106L
VL: B2 VL

EC50(M), Cell proliferation assay (Ba/F3-lepR): 1.63e-09 M
EC50(M), Luciferase assay: 7.38e-10 M
EC50, SIE-luciferase reporter assay: 0.738 nM
B5: S2H5 (antibody, V domains shown)
VH: B2 VH with G98S, V99R, R100Y, T105S, Y106L
VL: B2 VL
